Assay results: PMC12290011, “Pseudomonadal itaconate degradation gene cluster encodes enzymes for methylsuccinate utilization” (Communications Biology, 2025)

Tests used:
[1] = target: T1, C. necator MmgE/PrpD family protein, (S)-(R)-methylsuccinate isomerase (Cupriavidus necator, UniProt Q0K3E6); test: coupled assay with C. necator itaconate CoA transferase, UHPLC; assay type: biochemical; conditions: 2.5 mM substrate, pH 7.0, 5 mM MgCl2, 30 °C
T1 construct: gene prpD2; synthetic codon-optimized gene in pET16b, His-tagged, E. coli BL21(DE3), Ni-NTA purified
T1 sequence (Q0K3E6 1-460): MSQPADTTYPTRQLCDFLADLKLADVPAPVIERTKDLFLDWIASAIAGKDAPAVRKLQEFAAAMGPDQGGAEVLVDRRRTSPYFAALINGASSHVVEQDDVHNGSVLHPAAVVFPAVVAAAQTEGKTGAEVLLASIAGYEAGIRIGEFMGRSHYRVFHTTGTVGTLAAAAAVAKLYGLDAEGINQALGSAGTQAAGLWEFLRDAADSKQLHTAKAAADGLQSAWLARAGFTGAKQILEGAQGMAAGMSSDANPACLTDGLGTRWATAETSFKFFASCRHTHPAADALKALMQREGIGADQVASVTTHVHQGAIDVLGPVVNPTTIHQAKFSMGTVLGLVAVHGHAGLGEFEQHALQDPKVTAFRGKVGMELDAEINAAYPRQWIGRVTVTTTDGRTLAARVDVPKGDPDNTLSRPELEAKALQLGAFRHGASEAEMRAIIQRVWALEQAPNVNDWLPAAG

[2] = target: T2, Pa. xenovorans MmgE/PrpD family protein Bxe_B2582 (Paraburkholderia xenovorans, UniProt Q13R78); test: as above; assay type: biochemical; conditions: 2.5 mM substrate, pH 7.0, 5 mM MgCl2, 30 °C
T2 construct: pET16b, His-tagged, E. coli BL21(DE3), Ni-NTA purified
T2 sequence (Q13R78 1-494): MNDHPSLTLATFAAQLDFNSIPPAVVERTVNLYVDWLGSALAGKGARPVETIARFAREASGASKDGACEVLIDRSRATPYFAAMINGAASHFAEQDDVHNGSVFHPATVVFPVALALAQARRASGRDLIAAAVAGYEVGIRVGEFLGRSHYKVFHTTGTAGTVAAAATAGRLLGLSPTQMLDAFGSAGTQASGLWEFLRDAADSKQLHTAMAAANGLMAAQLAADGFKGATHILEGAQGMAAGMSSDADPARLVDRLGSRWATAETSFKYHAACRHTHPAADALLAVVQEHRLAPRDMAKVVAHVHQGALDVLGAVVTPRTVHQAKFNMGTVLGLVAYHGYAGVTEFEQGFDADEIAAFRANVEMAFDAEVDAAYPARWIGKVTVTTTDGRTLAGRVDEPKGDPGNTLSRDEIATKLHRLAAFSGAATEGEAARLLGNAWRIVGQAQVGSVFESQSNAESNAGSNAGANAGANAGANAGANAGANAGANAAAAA

[3] = target: T3, P. aeruginosa MmgE/PrpD family protein, (S)-(R)-methylsuccinate isomerase (Pseudomonas aeruginosa, UniProt Q9I564); test: as above; assay type: biochemical; conditions: 2.5 mM substrate, pH 7.0, 5 mM MgCl2, 30 °C
T3 construct: gene PA0881; synthetic codon-optimized gene in pET16b, His-tagged, E. coli BL21(DE3), Ni-NTA purified
T3 sequence (Q9I564 1-450): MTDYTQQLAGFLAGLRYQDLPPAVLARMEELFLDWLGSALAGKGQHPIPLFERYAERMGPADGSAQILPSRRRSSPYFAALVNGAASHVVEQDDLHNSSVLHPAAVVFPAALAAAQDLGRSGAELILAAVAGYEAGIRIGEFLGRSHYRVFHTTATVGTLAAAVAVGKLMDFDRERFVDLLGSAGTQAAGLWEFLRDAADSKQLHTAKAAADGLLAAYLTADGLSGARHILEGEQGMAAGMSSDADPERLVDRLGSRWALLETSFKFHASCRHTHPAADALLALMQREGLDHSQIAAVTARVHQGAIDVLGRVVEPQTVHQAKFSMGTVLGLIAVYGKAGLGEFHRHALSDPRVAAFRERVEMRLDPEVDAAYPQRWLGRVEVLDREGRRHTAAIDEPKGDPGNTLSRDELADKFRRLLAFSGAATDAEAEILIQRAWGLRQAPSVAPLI

[4] = tested on: C[C@@H](CC(=O)O)C(=O)O; test: purified protein; conditions: 1 mM succinyl-CoA, pH 7.0, 5 mM MgCl2, 30 °C
Description: (§4) UHPLC assay of CoA-esters on P. aeruginosa itaconate CoA transferase

[5] = tested on: C[C@H](CC(=O)O)C(=O)O; test: purified protein; conditions: 1 mM succinyl-CoA, pH 7.0, 5 mM MgCl2, 30 °C
Description: as §4

[6] = tested on: C=C(CC(=O)O)C(=O)O; test: purified protein; conditions: 1 mM succinyl-CoA, pH 7.0, 5 mM MgCl2, 30 °C
Description: as §4

[7] = substrate: C[C@@H](CC(=O)SCCNC(=O)CCNC(=O)[C@H](O)C(C)(C)COP(=O)(O)OP(=O)(O)OC[C@H]1O[C@@H](n2cnc3c(N)ncnc32)[C@H](O)[C@@H]1OP(=O)(O)O)C(=O)O; test: UHPLC assay of mesaconyl-CoA formation; assay type: biochemical, Pseudomonas aeruginosa; conditions: 1 mM phenazine methosulfate as electron acceptor, pH 7.0, 5 mM MgCl2, 30 °C
Description: (§1) UHPLC assay of mesaconyl-CoA formation on P. aeruginosa methylsuccinyl-C4-CoA dehydrogenase

[8] = substrate: C[C@H](CC(=O)SCCNC(=O)CCNC(=O)[C@H](O)C(C)(C)COP(=O)(O)OP(=O)(O)OC[C@H]1O[C@@H](n2cnc3c(N)ncnc32)[C@H](O)[C@@H]1OP(=O)(O)O)C(=O)O; test: UHPLC assay of mesaconyl-CoA formation; assay type: biochemical, Pseudomonas aeruginosa; conditions: 1 mM phenazine methosulfate as electron acceptor, pH 7.0, 5 mM MgCl2, 30 °C
Description: as §1

[9] = substrate: CC(C)(COP(=O)(O)OP(=O)(O)OC[C@H]1O[C@@H](n2cnc3c(N)ncnc32)[C@H](O)[C@@H]1OP(=O)(O)O)[C@@H](O)C(=O)NCCC(=O)NCCSC(=O)CCC(=O)O; test: UHPLC assay of CoA-esters; assay type: biochemical, Cupriavidus necator; conditions: 10 mM itaconate, pH 7.0, 5 mM MgCl2, 30 °C
Description: (§2) UHPLC assay of CoA-esters on C. necator itaconate CoA transferase

[10] = substrate: C[C@@H](CC(=O)O)C(=O)O; test: UHPLC assay of CoA-esters; assay type: biochemical, Cupriavidus necator; conditions: 1 mM succinyl-CoA, pH 7.0, 5 mM MgCl2, 30 °C
Description: as §2

[11] = substrate: C=C(CC(=O)O)C(=O)O; test: UHPLC assay of CoA-esters; assay type: biochemical, Cupriavidus necator; conditions: 1 mM succinyl-CoA, pH 7.0, 5 mM MgCl2, 30 °C
Description: as §2

[12] = substrate: O=C(O)CCCC(=O)O; test: UHPLC assay of CoA-esters; assay type: biochemical, Cupriavidus necator; conditions: 1 mM succinyl-CoA, pH 7.0, 5 mM MgCl2, 30 °C
Description: as §2

[13] = substrate: C[C@H](CC(=O)O)C(=O)O; test: UHPLC assay of CoA-esters; assay type: biochemical, Cupriavidus necator; conditions: 1 mM succinyl-CoA, pH 7.0, 5 mM MgCl2, 30 °C
Description: as §2

[14] = substrate: C[C@](O)(CC(=O)O)C(=O)O; test: UHPLC assay of CoA-esters; assay type: biochemical, Cupriavidus necator; conditions: 1 mM succinyl-CoA, pH 7.0, 5 mM MgCl2, 30 °C
Description: as §2

[15] = substrate: O=C(O)C[C@H](O)C(=O)O; test: purified protein; conditions: 1 mM succinyl-CoA, pH 7.0, 5 mM MgCl2, 30 °C
[16] = substrate: C[C@@H](CC(=O)SCCNC(=O)CCNC(=O)[C@H](O)C(C)(C)COP(=O)(O)OP(=O)(O)OC[C@H]1O[C@@H](n2cnc3c(N)ncnc32)[C@H](O)[C@@H]1OP(=O)(O)O)C(=O)O; test: UHPLC assay of mesaconyl-CoA formation; assay type: biochemical, Cupriavidus necator; conditions: 1 mM phenazine methosulfate as electron acceptor, pH 7.0, 5 mM MgCl2, 30 °C
Description: (§3) UHPLC assay of mesaconyl-CoA formation on C. necator methylsuccinyl-C4-CoA dehydrogenase

[17] = substrate: C[C@H](CC(=O)SCCNC(=O)CCNC(=O)[C@H](O)C(C)(C)COP(=O)(O)OP(=O)(O)OC[C@H]1O[C@@H](n2cnc3c(N)ncnc32)[C@H](O)[C@@H]1OP(=O)(O)O)C(=O)O; test: UHPLC assay of mesaconyl-CoA formation; assay type: biochemical, Cupriavidus necator; conditions: 1 mM phenazine methosulfate as electron acceptor, pH 7.0, 5 mM MgCl2, 30 °C
Description: as §3

With `C[C@H](CC(=O)O)C(=O)O` [(R)-Methylsuccinate] the “coupled assay with C. necator itaconate CoA transferase, UHPLC” value (“coupled assay” for short) [1] was “both MmgE/PrpD proteins catalyzed the isomerization of (S)-methylsuccinate to (R)-methylsuccinate”, the “coupled assay” value [2] was “we tested the isomerase activity of the Pa. xenovorans MmgE/PrpD family protein Bxe_B2582” and the “coupled assay” value [3] was “both MmgE/PrpD proteins catalyzed the isomerization of (S)-methylsuccinate to (R)-methylsuccinate”.

For `C[C@@H](CC(=O)O)C(=O)O` [(S)-Methylsuccinate], the “coupled assay” value [1] was “both MmgE/PrpD proteins catalyzed the isomerization of (S)-methylsuccinate to (R)-methylsuccinate”, the “coupled assay” value [2] was “we tested the isomerase activity of the Pa. xenovorans MmgE/PrpD family protein Bxe_B2582” and the “coupled assay” value [3] was “both MmgE/PrpD proteins catalyzed the isomerization of (S)-methylsuccinate to (R)-methylsuccinate”.

With “P. aeruginosa itaconate CoA transferase (Pseudomonas aeruginosa PAO1)” the Km [4] was 17800 ± 8000 µM, the Vmax [4] was 54.3 µmol/min/mg and the kcat/Km [4] was 2200 M⁻¹ s⁻¹. The Km [5] was 600 ± 200 µM, the Vmax [5] was 69.8 µmol/min/mg and the kcat/Km [5] was 88000 M⁻¹ s⁻¹. The Km [6] was 800 ± 300 µM, the Vmax [6] was 73 µmol/min/mg and the kcat/Km [6] was 66300 M⁻¹ s⁻¹.

B1: P. aeruginosa methylsuccinyl-C4-CoA dehydrogenase (Pseudomonas aeruginosa PAO1) (protein)
chain: MNPNSEELNAIREGVRALCAEFDAAYWRRIDEQRGFPEAFVKALTDAGWLSAMIPEEYGGSGLGLAEASVILEEVNRCGGNSGTVHGQMYNMFTLLRNGSEAQKRFYLPKLASGELRLQSMGVTEPTTGTDTTKIKTTAVRKGDRYVINGQKVWISRIQHSDLMILLARTTPLAEVKRKSEGMSIFLVDLREAIGKGLTVQPIANMVNHETNELFFDNLEIPADSLIGEEGKGFRYILDGLNAERTLIAAECIGDGRWFIDKASHYARDRVVFGRPIGQNQGVQFPIAEAHIEVEAADLMRWRACQEYDAGLNAGASANMAKYLAAKASWEAANACLQTHGGFGFACEYDVERKFRETRLYQVAPISTNLILSYVAEHLLELPRSF
notes: synthetic codon-optimized gene in pET23a, His-tagged, E. coli BL21(DE3), Ni-NTA purified with FAD in buffers
B1 showed a Km [7] of 470 ± 130 µM, a Vmax [7] of 2.8 µmol/min/mg and a kcat/Km [7] of 4300 M⁻¹ s⁻¹. For the same molecule, the Km [8] was 590 ± 140 µM, the Vmax [8] was 3.38 µmol/min/mg and the kcat/Km [8] was 4100 M⁻¹ s⁻¹.

B2: C. necator itaconate CoA transferase (Cupriavidus necator H16) (protein)
chain: MSHSPKGIRPLDGIRVVSLEHAVAAPFATRQLADLGARVIKIERPGVGDFARGYDQSVHGQASYFVWLNRGKESLTLDLKDREAQAILHRLLADADVLVQNLAPGAAVRMGLDFDSLHGKYDKLIVCDISGYGDSGPYRDKKAYDLLIQAAAGLVGLTGGPNEPSRAGVSIADISAGMYAYSGILSALLQRGRTGKGLRVQVTMLEAMAEWMNQVLYFGHYGGKPPGRFGASHPTIAPYGVHRTGNGSVIFSVQNEREFANFCEIVLGNRELAQDERFSSNTARVHNRPELTAIIEERFAPMTVAQAEALLDEAQIANAPMNDIEGVWNHPQLQARQRWREVATPGGPIGALLPPANLSGVEPVMGDVPALGAHSRQILAELGYDDGDIAALADKRTI
notes: pET16b, N-terminal His-tag, E. coli BL21(DE3), Ni-NTA purified
B2 showed a Km [9] of 760 ± 200 µM, a Vmax [9] of 116 µmol/min/mg and a kcat/Km [9] of 109000 M⁻¹ s⁻¹. The Km [10] was 35600 ± 3200 µM, the Vmax [10] was 35.6 µmol/min/mg and the kcat/Km [10] was 700 M⁻¹ s⁻¹. For the same molecule, the Km [11] was 4000 ± 1700 µM, the Vmax [11] was 53.2 µmol/min/mg and the kcat/Km [11] was 9500 M⁻¹ s⁻¹. It also gave a Km [12] of 37400 ± 8900 µM, a Vmax [12] of 3.2 µmol/min/mg and a kcat/Km [12] of 60 M⁻¹ s⁻¹. It also gave a Km [13] of 900 ± 100 µM, a Vmax [13] of 82 µmol/min/mg and a kcat/Km [13] of 65200 M⁻¹ s⁻¹. For the same molecule, the Km [14] was 15600 ± 2300 µM, the Vmax [14] was 10.2 µmol/min/mg and the kcat/Km [14] was 500 M⁻¹ s⁻¹. The Km [15] was 42800 ± 17200 µM, the Vmax [15] was 1.1 µmol/min/mg and the kcat/Km [15] was 20 M⁻¹ s⁻¹.

B3: C. necator methylsuccinyl-C4-CoA dehydrogenase (Cupriavidus necator H16) (protein)
chain: MHAHQDPDQLYPEIREAVRDLCAGFDSAYWQRVEEQNAFPETFVQALTQAGWLSALIPEAYGGSGLSLTAASVIMEEINRSGGNSGACHGQMYVMGCLLRHGSEAQKQRWLPGIASGELRMQSMAVTEPTTGTDTTKLKTTAVRQGDKYIVNGQKVWISRVQHSDLMLLLARTTPLDQVKRKSEGLSVFVVDLRDAIGKGLTVKPIRNMVNHETNELFFDNLEVPAGNLIGEEGKGLKYILDGLNAERILIAAECIGDGYWFVERASNYARDRIVFDRPIGQNQAVQFPIARSYINVEAASLMRYKASQLFDAGKPCGKEANISKLLAADASWEAANVCLQTHGGFGFAAEYDIERKFRETRLYQVAPISTNLILSYVAEHVLELPRSF
notes: pET23b, His-tagged, E. coli BL21(DE3), Ni-NTA purified with FAD in buffers
In the case of B3, the Km [16] is reported as 420 ± 140 µM, the Vmax [16] is reported as 0.69 µmol/min/mg and the kcat/Km [16] is reported as 1200 M⁻¹ s⁻¹. The Km [17] was 360 ± 80 µM, the Vmax [17] was 0.72 µmol/min/mg and the kcat/Km [17] was 1500 M⁻¹ s⁻¹.
